From US20220332804A1 (CSL INNOVATION, published 2022)

Columns and labels:
Experiment in all cases: SPR; KD relative to WT C2;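 also: biacore SPR at 37 °C, anti-C2 mAbs captured on an anti-human IgG chip, alanine or serine C2 surface mutants tested, KD from 1:1 fit compared with wild-type C2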
human C2 G427A = target: T1, human C2 G427A (human, UniProt P06681 21-752)
T1 sequence: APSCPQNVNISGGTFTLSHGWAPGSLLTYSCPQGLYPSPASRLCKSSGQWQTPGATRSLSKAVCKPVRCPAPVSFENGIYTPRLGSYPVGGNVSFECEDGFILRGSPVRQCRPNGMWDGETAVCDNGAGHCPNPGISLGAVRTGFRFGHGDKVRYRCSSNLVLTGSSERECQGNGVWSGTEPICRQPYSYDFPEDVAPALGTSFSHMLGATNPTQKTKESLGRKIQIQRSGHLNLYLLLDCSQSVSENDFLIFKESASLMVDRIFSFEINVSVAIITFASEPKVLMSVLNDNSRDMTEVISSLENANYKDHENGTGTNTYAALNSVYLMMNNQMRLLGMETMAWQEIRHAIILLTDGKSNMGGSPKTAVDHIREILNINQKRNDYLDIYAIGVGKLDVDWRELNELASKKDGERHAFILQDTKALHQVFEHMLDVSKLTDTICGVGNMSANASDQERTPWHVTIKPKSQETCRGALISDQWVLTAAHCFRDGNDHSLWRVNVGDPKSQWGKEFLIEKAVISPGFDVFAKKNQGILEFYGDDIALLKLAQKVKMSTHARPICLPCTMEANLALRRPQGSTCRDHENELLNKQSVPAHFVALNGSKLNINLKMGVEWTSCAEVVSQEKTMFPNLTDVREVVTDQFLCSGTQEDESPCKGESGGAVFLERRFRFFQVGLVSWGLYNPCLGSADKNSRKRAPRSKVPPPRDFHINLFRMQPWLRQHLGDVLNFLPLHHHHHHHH

human C2 N471A = target: T2, human C2 N471A (human, UniProt P06681 21-752)
T2 sequence: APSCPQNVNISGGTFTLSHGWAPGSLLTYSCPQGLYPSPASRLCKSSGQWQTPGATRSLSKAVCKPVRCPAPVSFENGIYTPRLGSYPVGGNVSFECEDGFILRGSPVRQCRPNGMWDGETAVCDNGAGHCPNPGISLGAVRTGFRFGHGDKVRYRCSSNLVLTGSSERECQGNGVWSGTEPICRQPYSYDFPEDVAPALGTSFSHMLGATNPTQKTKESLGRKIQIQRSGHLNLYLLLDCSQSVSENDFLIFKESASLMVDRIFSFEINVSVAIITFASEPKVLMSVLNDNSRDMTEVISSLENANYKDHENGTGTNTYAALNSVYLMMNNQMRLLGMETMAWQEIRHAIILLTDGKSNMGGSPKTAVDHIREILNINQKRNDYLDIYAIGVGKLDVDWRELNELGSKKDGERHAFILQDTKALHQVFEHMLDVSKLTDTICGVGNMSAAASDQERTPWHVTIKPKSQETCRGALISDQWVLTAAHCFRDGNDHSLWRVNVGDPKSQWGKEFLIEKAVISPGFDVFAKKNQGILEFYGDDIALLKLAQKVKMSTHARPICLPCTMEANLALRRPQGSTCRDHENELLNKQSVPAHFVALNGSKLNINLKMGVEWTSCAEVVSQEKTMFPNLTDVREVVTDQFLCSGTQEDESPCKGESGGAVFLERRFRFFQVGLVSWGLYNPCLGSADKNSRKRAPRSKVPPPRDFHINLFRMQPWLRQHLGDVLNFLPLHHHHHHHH

human C2 R434A = target: T3, human C2 R434A (human, UniProt P06681 21-752)
T3 sequence: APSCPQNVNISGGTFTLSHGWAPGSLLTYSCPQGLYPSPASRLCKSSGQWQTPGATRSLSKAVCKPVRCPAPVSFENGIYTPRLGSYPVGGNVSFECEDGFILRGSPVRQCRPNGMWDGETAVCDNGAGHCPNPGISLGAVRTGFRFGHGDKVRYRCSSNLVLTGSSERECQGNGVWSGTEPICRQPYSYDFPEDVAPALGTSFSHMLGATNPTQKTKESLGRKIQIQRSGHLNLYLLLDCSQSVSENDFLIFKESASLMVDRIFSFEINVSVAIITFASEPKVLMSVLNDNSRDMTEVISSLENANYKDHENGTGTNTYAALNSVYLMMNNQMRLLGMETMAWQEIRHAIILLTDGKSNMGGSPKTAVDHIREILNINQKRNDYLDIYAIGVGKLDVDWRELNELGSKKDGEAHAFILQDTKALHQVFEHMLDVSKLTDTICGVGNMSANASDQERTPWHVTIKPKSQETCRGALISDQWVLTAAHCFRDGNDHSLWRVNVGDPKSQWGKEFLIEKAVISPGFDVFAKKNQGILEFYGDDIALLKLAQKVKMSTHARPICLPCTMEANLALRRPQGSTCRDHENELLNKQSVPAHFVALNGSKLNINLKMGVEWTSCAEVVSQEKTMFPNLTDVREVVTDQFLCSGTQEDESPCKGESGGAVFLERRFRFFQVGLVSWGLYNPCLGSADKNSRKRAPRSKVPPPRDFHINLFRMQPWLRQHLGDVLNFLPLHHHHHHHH

human C2 I438A = target: T4, human C2 I438A (human, UniProt P06681 21-752)
T4 sequence: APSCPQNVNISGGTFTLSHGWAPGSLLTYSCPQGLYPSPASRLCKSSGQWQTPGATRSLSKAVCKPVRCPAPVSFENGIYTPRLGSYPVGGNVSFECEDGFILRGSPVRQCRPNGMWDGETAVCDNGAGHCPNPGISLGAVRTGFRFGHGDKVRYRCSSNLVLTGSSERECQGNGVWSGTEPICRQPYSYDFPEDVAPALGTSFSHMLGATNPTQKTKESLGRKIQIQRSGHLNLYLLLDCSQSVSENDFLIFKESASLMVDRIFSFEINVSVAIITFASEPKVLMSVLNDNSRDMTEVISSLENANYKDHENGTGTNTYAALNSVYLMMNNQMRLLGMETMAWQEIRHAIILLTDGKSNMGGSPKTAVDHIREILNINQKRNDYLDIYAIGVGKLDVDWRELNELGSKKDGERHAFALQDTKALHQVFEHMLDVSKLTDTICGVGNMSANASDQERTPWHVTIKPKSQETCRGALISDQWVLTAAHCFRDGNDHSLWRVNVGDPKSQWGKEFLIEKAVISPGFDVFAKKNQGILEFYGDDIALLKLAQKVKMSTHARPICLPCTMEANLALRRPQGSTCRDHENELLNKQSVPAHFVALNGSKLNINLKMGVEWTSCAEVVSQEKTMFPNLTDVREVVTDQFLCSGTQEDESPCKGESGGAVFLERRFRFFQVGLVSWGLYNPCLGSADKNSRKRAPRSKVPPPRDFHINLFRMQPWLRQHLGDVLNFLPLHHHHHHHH

B1: RF16-214 (antibody, V domains shown)
VH: EVQLLESGGGLVQPGGSLRLSCAASGFTFSWYQMMWVRQAPGKGLEWVSRIYPSGGGTAYADSVKGRFTISRDNSKNTLYLQMNSLRAEDTAVYYCARDAGYGDNWGQGTLVTVSS
VL: QSALTQPPSVSVSPGQTASITCSGDKLGEKYASWYQQKAGQSPVMVIYQDRKRPSGIPERFSGSNSGNTATLTISGTQAMDEADYYCQAWDTRAVVFGGGTKLTVLG
Fold diff (human C2 G427A): 0 fold | Fold diff (human C2 N471A): 1 fold | Fold diff (human C2 R434A): 7 fold | Fold diff (human C2 I438A): 1 fold
